Binding result and Kd data for two molecules are collected here from patent publication US20230220031A1 (Stanford University, published 2023).

Assay [1] addresses T1, human IL-12Rβ1 on human T cells and NK cells (human, UniProt P42701 24-662).
T1 construct: whole, on cells
As to the kind of experiment: flow cytometry, 200 nM human p40 tetramer (streptavidin-AF647) against streptavidin alone, human PBMC: NK cells and CD8+ T cells ex vivo and CD8+ T cell blasts. For orientation: In flow cytometry, cells or beads pass a laser one at a time.

The target of assay [2] is T2, human IL-12Rβ1 (soluble, SPR analyte) (UniProt P42701 24-545, limits assumed).
T2 construct: also called IL-12 receptor beta 1
The assay can be described thus: SPR, IL-12Rβ1 over immobilized IL-12p40, steady state affinity model. In general terms: In SPR one partner is held on a chip, and binding of the other changes the refractive index at the surface.

B1: human p40 tetramer (biotinylated human IL-12p40 on streptavidin-AF647) (ligand)
chain: IWELKKDVYVVELDWYPDAPGEMVVLTCDTPEEDGITWTLDQSSEVLGSGKTLTIQVKEFGDAGQYTCHKGGEVLSHSLLLLHKKEDGIWSTDILKDQKEPKNKTFLRCEAKNYSGRFTCWWLTTISTDLTFSVKSSRGSSDPQGVTCGAATLSAERVRGDNKEYEYSVECQEDSACPAAEESLPIEVMVDAVHKLKYENYTSSFFIRDIIKPDPPKNLQLKPLKNSRQVEVSWEYPDTWSTPHSYFSLTFCVQVQGKSKREKKDRVFTDKTSATVICRKNASISVRAQDRYYSSSWSEWASVPCSGLNDIFEAQKIEWHEHHHHHH
modifications: biotinylated
notes: also called human p40 tetramers
For B1, the binding result in assay [1] is recorded as “binds”.

B2: human IL-12p40 (23-328) with C-terminal AviTag and 6x His (ligand)
chain: IWELKKDVYVVELDWYPDAPGEMVVLTCDTPEEDGITWTLDQSSEVLGSGKTLTIQVKEFGDAGQYTCHKGGEVLSHSLLLLHKKEDGIWSTDILKDQKEPKNKTFLRCEAKNYSGRFTCWWLTTISTDLTFSVKSSRGSSDPQGVTCGAATLSAERVRGDNKEYEYSVECQEDSACPAAEESLPIEVMVDAVHKLKYENYTSSFFIRDIIKPDPPKNLQLKPLKNSRQVEVSWEYPDTWSTPHSYFSLTFCVQVQGKSKREKKDRVFTDKTSATVICRKNASISVRAQDRYYSSSWSEWASVPCSGLNDIFEAQKIEWHEHHHHHH
notes: Immobilized partner in the SPR experiment; also called interleukin-12 subunit p40
Turning to B2, the Kd in assay [2] was found to be 1.7 µM.

One may read the Kd as the constant that tells how readily two partners part at equilibrium. Low readings indicate tighter binding, high ones weaker binding.
